Ends that are not written are not given here.
Experiments:
[1] = system: Lactobacillus sakei (NBRC15893); assay: Wide pH-range stability test (spot-on-lawn antimicrobial activity after incubation in buffer); assay type: physicochemical; set-up: key: A: Good activity; B: Slight influence on activity; C: No activity; settings: ten times the lowest concentration of Table 3, A = spot diameter 80% or more of control in water
Procedure: Antimicrobial activity of the antimicrobial peptide was evaluated by a spot-on-lawn method that involved spotting 10 µL of a test liquid 13 on the test bacteria (lawn) (on a soft agar medium 11) (Fig. 1). As the test bacteria, Lactobacillus sakei (NBRC15893) was used. The specific procedure is as follows. Firstly, the test bacteria that were cultured overnight were mixed and diluted with Lactobacilli AOAC agar (soft agar medium 11) in a density of 4×10^7 CFU/mL, and was spread over an MRS plate containing 2% agar (an agar medium 12). Test liquid 13 was spotted thereon, and incubated overnight at 30°C, followed by evaluation of the size of a growth inhibition circle 14 (Fig. 1). It can be determined that the larger the growth inhibition circle, the higher the antimicrobial activity. The fraction with highest antimicrobial activity as determined in the antimicrobial activity test was regarded as a purified active fraction and used in Experiment 4 and Experiment 5 described below. For the polypeptides as set forth in SEQ ID NOs: 1 to 5, 13, and 14 in Table 3, evaluation was carried out to see if they had antimicrobial activity over a wide range of pH. As a Comparative Example, a commercially available nisin A (manufactured by Sigma-Aldrich) was used. Firstly, each peptide was dissolved in the following buffer to prepare a solution of a concentration ten times the lowest concentration specified in Table 3: sodium phosphate buffer (50 mM, pH4), 1x phosphate buffer saline (pH7.4), ammonium chloride-ammonia buffer (50 mM, pH10.0). […] Antimicrobial activity was evaluated based on the size of the spot (the size of the growth inhibition circle). When the size of the spot was equivalent to that of the control (when the diameter of the spot was 80% or more of the control), it was rated as A, and when the size was relatively small but antimicrobial activity was still detected, it was rated as B. When the growth inhibition circle was not observed, it was rated as C. It can be determined that the peptides rated as A or B are stable at the test pHs. […]

[2] = system: Lactobacillus sakei (NBRC15893); assay: Thermal stability test (spot-on-lawn antimicrobial activity after heat treatment); assay type: physicochemical; set-up: key: A: Good activity; B: Slight influence on activity; C: No activity; settings: in water, ten times the lowest concentration of Table 3, A = spot diameter 80% or more of control with no heat treatment
Procedure: Antimicrobial activity of the antimicrobial peptide was evaluated by a spot-on-lawn method that involved spotting 10 µL of a test liquid 13 on the test bacteria (lawn) (on a soft agar medium 11) (Fig. 1). As the test bacteria, Lactobacillus sakei (NBRC15893) was used. The specific procedure is as follows. Firstly, the test bacteria that were cultured overnight were mixed and diluted with Lactobacilli AOAC agar (soft agar medium 11) in a density of 4×10^7 CFU/mL, and was spread over an MRS plate containing 2% agar (an agar medium 12). Test liquid 13 was spotted thereon, and incubated overnight at 30°C, followed by evaluation of the size of a growth inhibition circle 14 (Fig. 1). It can be determined that the larger the growth inhibition circle, the higher the antimicrobial activity. The fraction with highest antimicrobial activity as determined in the antimicrobial activity test was regarded as a purified active fraction and used in Experiment 4 and Experiment 5 described below. For the polypeptides as set forth in SEQ ID NOs: 1 to 5, 13, and 14 in Table 3, evaluation was carried out to see if they had antimicrobial activity after heat treatment. As a Comparative Example, a commercially available nisin A (manufactured by Sigma-Aldrich) was used. Firstly, each peptide was dissolved in water to prepare a solution of a concentration ten times the lowest concentration specified in Table 3. The test solution thus prepared was subjected to heat treatment at 80°C for 30 minutes, or at 100°C for 30 minutes, or at 121°C for 15 minutes. […] Antimicrobial activity was evaluated based on the size of the spot (the size of the growth inhibition circle); when the size of the spot was equivalent to that of the control (when the diameter of the spot was 80% or more of the control), it was rated as A, and when the size was relatively small but activity was still detected, it was rated as B. When the spot was not observed, it was rated as C. It can be determined that the peptides rated as A or B are stable at the test temperatures. […]

[3] = system: Candida albicans; assay: Antimicrobial activity test in liquid culture (growth by OD630); assay type: cell-based; set-up: key: +: Antimicrobial activity observed; -: No antimicrobial activity observed; settings: Test conc. 25 µM; culturing 24 to 48 hours
Procedure: (§1) As a Comparative Example, a commercially available nisin A (manufactured by Sigma-Aldrich) was used. Firstly, each peptide was dissolved in MRS medium to prepare a solution of a concentration of 20 µM to 1000 µM. From the resultant, 10 µl was taken and mixed with various test bacteria and 90 µl of medium intended for culturing the test bacteria, followed by culturing for 24 hours to 48 hours. After culturing, OD630 was measured to check the number of bacteria. When OD630 increased or turbidity was visually observed as compared to the culture liquid before culturing, it can be determined that the test bacteria had grown. […] In the "SEQ ID NO or substance name of peptide" section in Table 5, each of "SEQ ID NO: 3 & SEQ ID NO: 4" and "SEQ ID NO: 13 & SEQ ID NO: 14" means that a combination of the two types of peptides were used in equimolar amounts. The results in Table 5 indicate that the polypeptides as set forth in SEQ ID NOs: 1 to 5, 13, and 14 were effective against gram-positive bacteria and some of these polypeptides were effective against gram-negative bacteria such as E. coli and fungi such as C. albicans.

[4] = system: Escherichia coli; assay: as above; assay type: cell-based; set-up: key: +: Antimicrobial activity observed; -: No antimicrobial activity observed; settings: Test conc. 25 µM; culturing 24 to 48 hours
Procedure: as §1

[5] = system: Lactobacillus sakei; assay: as above; assay type: cell-based; set-up: key: +: Antimicrobial activity observed; -: No antimicrobial activity observed; settings: Test conc. 25 µM; culturing 24 to 48 hours
Procedure: as §1

[6] = system: Staphylococcus aureus; assay: as above; assay type: cell-based; set-up: key: +: Antimicrobial activity observed; -: No antimicrobial activity observed; settings: Test conc. 25 µM; culturing 24 to 48 hours
Procedure: as §1

[7] = system: Streptococcus uberis; assay: as above; assay type: cell-based; set-up: key: +: Antimicrobial activity observed; -: No antimicrobial activity observed; settings: Test conc. 25 µM; culturing 24 to 48 hours
Procedure: as §1

nisin A (ITSISLCTPGCKTGALMGCNMKTATCHCSIHVSK; thioether (positions not given here); not fully specified (some residues, bridges); also: lantibiotic: thioether rings and dehydro residues not placed; UniProt P13068 24-57, looked up) [antimicrobial peptide produced by Lactococcus lactis]
pH Stability pH7 ([1]; 1x phosphate buffer saline (pH7.4), 27°C for 24 hours): C | pH Stability pH10 ([1]; ammonium chloride-ammonia buffer 50 mM pH10.0, 27°C for 24 hours): C | pH Stability pH4 ([1]; sodium phosphate buffer 50 mM pH4, 27°C for 24 hours): A | Thermostability 80°C ([2]; 80°C for 30 minutes): C | Thermostability 100°C ([2]; 100°C for 30 minutes): C | Thermostability 121°C ([2]; 121°C for 15 minutes (autoclave)): C | Antimicrobial activity, test bacteria Candida albicans [3]: - | Antimicrobial activity, test bacteria Escherichia coli [4]: - | Antimicrobial activity, test bacteria Lactobacillus sakei [5]: + | Antimicrobial activity, test bacteria Staphylococcus aureus [6]: + | Antimicrobial activity, test bacteria Streptococcus uberis [7]: +

From patent EP4644549A1, “ANTIMICROBIAL PEPTIDE AND METHOD FOR PRODUCING SAME” (Sumitomo Chemical Company, Limited, priority 2022, dated 2025)
